Drawing on patent publication US20260201046A1 (BIO RAD LABORATORIES, published 2026), this text covers Kd for one molecule.

The target in the assay is T1, recombinant mouse sIL-6Ra (20-357) (mouse, UniProt P22272 20-357).
T1 construct: range 20-357; The CD33 part of the plasmid name is not explained; also called recombinant sIL-6Ra; recombinant soluble IL-6Ra
T1 sequence: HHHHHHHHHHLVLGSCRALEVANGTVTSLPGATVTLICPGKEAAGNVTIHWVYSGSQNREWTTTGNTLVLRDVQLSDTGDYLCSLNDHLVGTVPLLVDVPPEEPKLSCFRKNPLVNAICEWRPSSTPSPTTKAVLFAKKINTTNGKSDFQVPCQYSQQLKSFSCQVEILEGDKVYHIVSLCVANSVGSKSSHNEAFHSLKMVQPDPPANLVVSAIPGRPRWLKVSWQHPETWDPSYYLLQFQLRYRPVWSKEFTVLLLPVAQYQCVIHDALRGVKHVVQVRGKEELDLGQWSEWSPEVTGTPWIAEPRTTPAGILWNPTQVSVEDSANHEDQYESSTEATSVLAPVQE
The assay is described as follows: SPR (Biacore), sIL-6Ra (20-357) amine-coupled to CM5 chip, antibody as analyte, 1:1 Langmuir fit. The procedure:
The antigen-antibody affinity of four antibodies (rAb #22, rAb #52, rAb #62, a rat mAb RB01) were determined by an analysis service employing a surface plasmon resonance technology (Beijing Xtalbio Ltd. Co). It started with a directly immobilization of recombinant mouse sIL-6Ra (20-357) on a CM5 S sensor chip using Biacore® S200 machine. Approximately 27.8 resonance units (RU) of the sIL-6Ra (20-357) were immobilized at 25° C. with an amine coupling kit following the standard amine coupling procedure. The remaining active sites on the sensor chip were blocked with 1 M ethanolamine-HCl solution, pH 8.5 at a flow rate of 10 μL/min for 7 min, to finally reach 27.8 RU. The flow cells were washed with the injection of HBS-EP running buffer at 30 μL/min. For each antibody, a 2-fold serial dilution (0, 0.39 nM-200 nM) was injected at 15° C. to a channel with a flow rate of 30 μL/min for 120s and dissociation was followed for 720s. The curves were locally fitted with Biacore®8K analysis software (BIAevaluation) using a 1:1 Langmuir binding model.
On the technique in general: Surface plasmon resonance follows binding to a sensor surface in real time, without labels.

B1: rAb #52 (antibody, V domains shown)
VH: QSLEESGGDLVKPGASLTLACTASGFSFSSGYYMCWVRQAPGKGLEWIGCIYTGSDTTYYASWAKGRFTISETSSTAATLQMTSLTAADTATYFCARDLGSRGNLWGPGTLVTVSS
VL: DIVMTQTPSSVSAAVGDTVTINCQASENIYSFLTWYQQKPGQRPKLLIYRASTLASGVPSRFKGSGSGTDFTLTISDLECADAATYYCQRNAYSSWAFGGGTEVVVK
notes: also called Antibody 52; recombinant rabbit monoclonal antibody from fusion clone #52
A word on the Kd: it is the concentration at which binding is half-saturated. With B1, the Kd came out at 9.43 pM.
